From doi:10.1101/2024.01.08.574761 (bioRxiv, 2024)

Molecular target: Claspin C-terminal polypeptide #18 (897-1339aa), 3x Flag, dephosphorylated with λPPase (human, UniProt Q9HAW4 897-1339, dephosphorylated with λPPase)
Assay: native gel or EMSA

Chain of Claspin C-terminal polypeptide #18 (897-1339aa), 3x Flag, dephosphorylated with λPPase (Q9HAW4 897-1339): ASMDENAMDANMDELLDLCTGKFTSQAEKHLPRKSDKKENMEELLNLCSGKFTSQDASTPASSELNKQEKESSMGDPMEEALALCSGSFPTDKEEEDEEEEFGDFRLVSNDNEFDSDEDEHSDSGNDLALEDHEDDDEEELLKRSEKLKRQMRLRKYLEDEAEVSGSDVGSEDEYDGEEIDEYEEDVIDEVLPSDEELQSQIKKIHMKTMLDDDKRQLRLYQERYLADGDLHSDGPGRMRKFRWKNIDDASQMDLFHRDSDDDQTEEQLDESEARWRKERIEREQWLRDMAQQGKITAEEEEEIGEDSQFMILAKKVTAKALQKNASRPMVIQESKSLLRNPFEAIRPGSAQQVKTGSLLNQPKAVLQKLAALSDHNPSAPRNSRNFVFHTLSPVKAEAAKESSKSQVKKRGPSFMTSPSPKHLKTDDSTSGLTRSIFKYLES

- binding result: binds
B1: Claspin N-terminal polypeptide #2 (1-350aa), dephosphorylated with λPPase (domain or fragment)
chain: MTGEVGSEVHLEINDPNVISQEEADSPSDSGQGSYETIGPLSEGDSDEEIFVSKKLKNRKVLQDSDSETEDTNASPEKTTYDSAEEENKENLYAGKNTKIKRIYKTVADSDESYMEKSLYQENLEAQVKPCLELSLQSGNSTDFTTDRKSSKKHIHDKEGTAGKAKVKSKRRLEKEERKMEKIRQLKKKETKNQEDDVEQPFNDSGCLLVDKDLFETGLEDENNSPLEDEESLESIRAAVKNKVKKHKKKEPSLESGVHSFEEGSELSKGTTRKERKAARLSKEALKQLHSETQRLIRESALNLPYHMPENKTIHDFFKRKPRPTCHGNAMALLKSSKYQSSHHKEIIDT
modifications: dephosphorylated with λPPase
